The values below are quoted from earlier work in patent US20030175285A1, “Molecule of pharmaceutical interest comprising at its n-terminal a glutamic acid or a glutamine in the form of a physiologically acceptable strong acid” (priority 2000, published 2003).

The conditions of the data set: in 2 months, formulated with adjuvant solution of the Montanide ISA 720 type.

Take EEGAIVGEI: the “spontaneous cyclization to pyroglutamate” value is reported as 30%.
